Source: patent publication US20140079722A1, “EXTRACELLULAR TARGETED DRUG CONJUGATES” (CENTROSE, LLC, priority 2011, published 2014)

Experiments:
PANC-1 xenograft = PANC-1 xenograft model, alone and with gemcitabine; type: in vivo, C.B-17/IcrHsd-Prkdc scid Lyst bg mice
Protocol: A disease model of pancreatic cancer was established by implanting 5×10^6 PANC-1 cells in 100 μL DMEM into the left flank of 7 week old female C.B-17/IcrHsd-Prkdc^scidLyst^bg mice. Mice were then treated with M53-PEG24-CEN09-106 with a drug loading of 8 and/or gemcitabine when the tumor size in groups of 3 animals averaged ˜500 mm^3. Treatments consisted of either vehicle control, M53-PEG24-CEN09-106 at 0.2, 1 and 5 mg/kg, with and without 60 mg/kg gemcitabine or 60 mg/kg gemcitabine alone and consisted of multiple injections using the M53-PEG24-CEN09-106 schedule of one injection every 7 days for 3 injections (q7d×3) administered i.v. and the gemcitabine schedule of one injection every 3 days for 5 injections (q3d×5) administered i.p. Tumor volumes were measured for each group using calibrated vernier calipers and plotted against first day of tumor implant for 28 days post-initial dose, graphed and shown in FIG. 6.

A549 xenograft = A549 xenograft model (cell implant); type: in vivo, Hsd:Athymic Nude-Foxn1nu mice
Protocol: Briefly, to establish a non-small-cell lung cancer disease model, 6×10^6 A549 cells in 200 μL, RPMI1640+50% Matrigel HC (BD Biosciences, San Jose, Calif.) were implanted into the left flank of Hsd:Athymic Nude-Foxn1^nu mice (Harlan, Indianapolis, Ind.). Therapy with antibody-drug conjugates was then initiated when the tumor volume in groups of 5 animals averaged ˜300 mm^3. Treatment using vehicle control, 0.1 and 1 mg/kg M53-PEG24-CEN09-106, and 10 mg/kg control M53-PEG24-CEN09-106 (a control conjugate with a drug loading of 7 drugs per antibody where the antibody's target is not on the cell surface but drug and linker and antibody isotype are the same as M53-PEG24-CEN09-106) were all administered i.v. using the schedule of one injection every 7 days with 3 total injected doses (q7d×3). 15 mg/kg paclitaxel dosed at q2d×5 served as a positive control treatment group. Using this schedule, tumor volumes were measured for each group using calibrated vernier calipers and plotted against first day of tumor implant for 54 days post-implant and 40 days post-initial dose, to produce the graph shown in FIG. 3.

B1: M53-PEG24-CEN09-106: Class 1 EDC: antibody M53 conjugated to linker-ready agent PEG24-CEN09-106 (scillarenin, 4-amino-xyloside, PEG24) (conjugate)
heavy: EVQLVESGGGLVQPKGTLKLSCAASGFSFNTHAMNWVRQAPGKSLEWVARTMSKSNNYATYYADSVKDRFIIRADDSQSMLYLQMNNLKTEDTAMYYCVRDDPKRGMDYWGQGTSVTVSSAKTTPPSVYPLAPGSAAQTNSMVTLGCLVKGYFPEPVTVTWNSGSLSSGVHTFPAVLQSDLYTLSSSVTVPSSTWPSETVTCNVAHPASSTKVDKKIE
light: GIVMSQSPSSLAVSVGEKVTMSCKPSQSLLYSRNQKIYLAWYQQKPGQSPKLLIYWASTRESGVPDRFTGSGSGTDFTLIISSVRAEDLAVYYCQQYYNYPLTFGAGTKLELKRADAAPTVSIFPPSSEQLTSGGASVVCFLNNFYPKDINVKWKIDGSERQNGVLNSWTDQDSKDSTYSMSSTLTLTKDEYERHNSYTCEATHKTSTSPIVKSFNR
- growth inhibition of the tumor (PANC-1 xenograft; 0.2 mg/kg i.v. q7dx3 combined with 60 mg/kg gemcitabine i.p. q3dx5): 88%
- tumor response (PANC-1 xenograft; 1 and 5 mg/kg i.v. q7dx3 combined with 60 mg/kg gemcitabine i.p. q3dx5): tumor regression
- growth inhibition of the tumor compared to vehicle (PANC-1 xenograft; drug loading of 8, 0.2 mg/kg i.v. q7dx3, day 28 post-initial dose): 38%
- growth inhibition of the tumor compared to vehicle (PANC-1 xenograft; drug loading of 8, 1 mg/kg i.v. q7dx3, day 28 post-initial dose): 48%
- growth inhibition of the tumor compared to vehicle (PANC-1 xenograft; drug loading of 8, 5 mg/kg i.v. q7dx3, day 28 post-initial dose): 76%
- growth inhibition of the tumor compared to vehicle (A549 xenograft; drug loading of 8, 0.1 mg/kg i.v. q7dx3, A549 xenograft): 35%
- growth inhibition of the tumor compared to vehicle (A549 xenograft; drug loading of 8, 1 mg/kg i.v. q7dx3, A549 xenograft): 65%
